According to paper PMC2174547 (The Journal of Cell Biology, 2000):
“And” between values parts separate entries of the source, which are not always exact repeats. Identical values can stand only once.

Columns and labels:
6xHis-PEX19 (human) = 6xHis-PEX19 (human) (UniProt P40855); assay: far-Western, overlay or dot blot
6xHis-PEX19 = molecular target: T1, 6xHis-PEX19 (human, UniProt P40855 1-299); assay: far-Western, overlay or dot blot
T1 sequence: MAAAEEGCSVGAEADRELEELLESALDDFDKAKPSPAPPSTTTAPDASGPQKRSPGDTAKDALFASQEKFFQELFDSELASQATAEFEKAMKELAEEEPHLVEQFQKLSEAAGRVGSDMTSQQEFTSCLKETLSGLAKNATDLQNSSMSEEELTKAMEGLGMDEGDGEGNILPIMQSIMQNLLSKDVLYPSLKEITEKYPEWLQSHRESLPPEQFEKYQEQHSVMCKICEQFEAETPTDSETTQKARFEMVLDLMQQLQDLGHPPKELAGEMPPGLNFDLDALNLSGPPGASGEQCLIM

**Q.** Which Kd (6xHis-PEX19 (human)) does the source give for “6xHis-PEX14 (from UniProt O75381 1-377) (natural protein)” here?
**A.** 350 nM and 800 nM and 500 nM

B1: 6xHis-PEX14 amino acids 1–147 (domain or fragment)
chain: MASSEQAEQPSQPSSTPGSENVLPREPLIATAVKFLQNSRVRQSPLATRRAFLKKKGLTDEEIDMAFQQSGTAADEPSSLGPATQVVPVQPPHLISQPYSPAGSRWRDYGALAIIMAGIAFGFHQLYKKYLLPLILGGREDRKQLER
**Q.** With B1 as the molecule, how does the IC50 (6xHis-PEX19) read?
**A.** 30000 nM
